{"source": "paper PMC10786891", "about": "“Massively parallel profiling of RNA-targeting CRISPR-Cas13d”", "binders": {"B1": {"name": "target 1 insG 3' of 19,insG 3' of 7 (mixed)", "RNA 1": "CACCCGUGCAAAAAUGCAGGGGUCUAAAACUGAGCGGAUAACCUCUCUAUGG", "RNA 2": "GGGAAUGGAUCCACAUCUACGAAUUCGUACCAUGAGAGAGGUUAUCGCGCUCACCGAGAUCGGAAGAGCACACGU"}, "B2": {"name": "target 1 insG 3' of 6,insU 3' of 6 (mixed)", "RNA 1": "B1 RNA 1", "RNA 2": "GGGAAUGGAUCCACAUCUACGAAUUCGUACCAUAGAGAGGUUAUCCGUGCUCACCGAGAUCGGAAGAGCACACGU"}, "B3": {"name": "target 1 A1U,U10C (mixed)", "RNA 1": "B1 RNA 1", "RNA 2": "GGGAAUGGAUCCACAUCUACGAAUUCGUACCAUAGAGAGGUCAUCCGCUCUCCGAGAUCGGAAGAGCACACGU"}, "B4": {"name": "target 1 U8C,G13U (mixed)", "RNA 1": "B1 RNA 1", "RNA 2": "B3 RNA 2 with G39U, C42U, U44C, U51A"}, "B5": {"name": "target 1 insG 3' of 11,insG 3' of 10 (mixed)", "RNA 1": "B1 RNA 1", "RNA 2": "B2 RNA 2 with U42G, A43U, U44G, C45A, C46U, G47C, U48C"}, "B6": {"name": "target 1 C7U,U10C (mixed)", "RNA 1": "B1 RNA 1", "RNA 2": "B3 RNA 2 with C45U, U51A"}, "B7": {"name": "target 1 C6A,A20U (mixed)", "RNA 1": "B1 RNA 1", "RNA 2": "B3 RNA 2 with A32U, C42U, C46A, U51A"}, "B8": {"name": "target 1 insC 3' of 20,insG 3' of 8 (mixed)", "RNA 1": "B1 RNA 1", "RNA 2": "B1 RNA 2 with U33C, G34U, C46G, G47C"}, "B9": {"name": "target 1 U10A,A16G (mixed)", "RNA 1": "B1 RNA 1", "RNA 2": "B3 RNA 2 with A36G, C42A, U51A"}, "B10": {"name": "target 1 insU 3' of 14,insG 3' of 6 (mixed)", "RNA 1": "B1 RNA 1", "RNA 2": "B2 RNA 2 with G39U, U41G, A43U, U44A, C45U, G47C, U48G"}, "B11": {"name": "target 1 C4U,U8A (mixed)", "RNA 1": "B1 RNA 1", "RNA 2": "B3 RNA 2 with C42U, U44A, C48U, U51A"}, "B12": {"name": "target 1 G12U,G17C (mixed)", "RNA 1": "B1 RNA 1", "RNA 2": "B3 RNA 2 with G35C, G40U, C42U, U51A"}, "B13": {"name": "target 1 insU 3' of 18,insG 3' of 2 (mixed)", "RNA 1": "B1 RNA 1", "RNA 2": "B1 RNA 2 with G34A, A35U, G47C, C48G, G49C, C50U, U51C, C52G"}, "B14": {"name": "target 1 U10C (mixed)", "RNA 1": "B1 RNA 1", "RNA 2": "B3 RNA 2 with U51A"}, "B15": {"name": "target 1 U3C,C7G (mixed)", "RNA 1": "B1 RNA 1", "RNA 2": "B3 RNA 2 with C42U, C45G, U49C, U51A"}, "B16": {"name": "target 1 del13,del22 (mixed)", "RNA 1": "B1 RNA 1", "RNA 2": "GGGAAUGGAUCCACAUCUACGAAUUCGUACAUAGAGAGUUAUCCGCUCACCGAGAUCGGAAGAGCACACGU"}, "B17": {"name": "target 1 insU 3' of 6,insG 3' of 4 (mixed)", "RNA 1": "B1 RNA 1", "RNA 2": "B2 RNA 2 with G47U, U48G, G49C, C50G"}, "B18": {"name": "target 1 U3G,A9G (mixed)", "RNA 1": "B1 RNA 1", "RNA 2": "B3 RNA 2 with C42U, A43G, U49G, U51A"}, "B19": {"name": "target 1 C4A,U19G (mixed)", "RNA 1": "B1 RNA 1", "RNA 2": "B3 RNA 2 with U33G, C42U, C48A, U51A"}, "B20": {"name": "target 1 insG 3' of 22,insA 3' of 2 (mixed)", "RNA 1": "B1 RNA 1", "RNA 2": "GGGAAUGGAUCCACAUCUACGAAUUCGUACGCAUAGAGAGGUUAUCCGCUCAACCGAGAUCGGAAGAGCACACGU"}, "B21": {"name": "target 1 U8C,U10A (mixed)", "RNA 1": "B1 RNA 1", "RNA 2": "B3 RNA 2 with C42A, U44C, U51A"}, "B22": {"name": "target 1 del9 (mixed)", "RNA 1": "B1 RNA 1", "RNA 2": "GGGAAUGGAUCCACAUCUACGAAUUCGUACCAUAGAGAGGUUUCCGCUCACCGAGAUCGGAAGAGCACACGU"}, "B23": {"name": "target 1 insA 3' of 22,insU 3' of 20 (mixed)", "RNA 1": "B1 RNA 1", "RNA 2": "GGGAAUGGAUCCACAUCUACGAAUUCGUACACAUUAGAGAGGUUAUCCGCUCACCGAGAUCGGAAGAGCACACGU"}, "B24": {"name": "target 1 A1C,U10C (mixed)", "RNA 1": "B1 RNA 1", "RNA 2": "B3 RNA 2 with U51C"}, "B25": {"name": "target 1 insC 3' of 11,insU 3' of 2 (mixed)", "RNA 1": "B1 RNA 1", "RNA 2": "GGGAAUGGAUCCACAUCUACGAAUUCGUACCAUAGAGAGGUCUAUCCGCUCUACCGAGAUCGGAAGAGCACACGU"}, "B26": {"name": "target 1 insA 3' of 21,insG 3' of 14 (mixed)", "RNA 1": "B1 RNA 1", "RNA 2": "B1 RNA 2 with U33A, G34U, U42G, A44U, U45A, C46U, G47C"}, "B27": {"name": "target 1 insU 3' of 9,insA 3' of 2 (mixed)", "RNA 1": "B1 RNA 1", "RNA 2": "B25 RNA 2 with C42U, U43A, A44U, U52A"}, "B28": {"name": "target 1 C2U,U19C (mixed)", "RNA 1": "B1 RNA 1", "RNA 2": "B3 RNA 2 with U33C, C42U, C50U, U51A"}}, "biological_target": "T1, EsCas13d, nuclease-dead (Eubacterium siraeum, UniProt B0MS50, R295A;H300A;R849A;H854A)", "T1 sequence": "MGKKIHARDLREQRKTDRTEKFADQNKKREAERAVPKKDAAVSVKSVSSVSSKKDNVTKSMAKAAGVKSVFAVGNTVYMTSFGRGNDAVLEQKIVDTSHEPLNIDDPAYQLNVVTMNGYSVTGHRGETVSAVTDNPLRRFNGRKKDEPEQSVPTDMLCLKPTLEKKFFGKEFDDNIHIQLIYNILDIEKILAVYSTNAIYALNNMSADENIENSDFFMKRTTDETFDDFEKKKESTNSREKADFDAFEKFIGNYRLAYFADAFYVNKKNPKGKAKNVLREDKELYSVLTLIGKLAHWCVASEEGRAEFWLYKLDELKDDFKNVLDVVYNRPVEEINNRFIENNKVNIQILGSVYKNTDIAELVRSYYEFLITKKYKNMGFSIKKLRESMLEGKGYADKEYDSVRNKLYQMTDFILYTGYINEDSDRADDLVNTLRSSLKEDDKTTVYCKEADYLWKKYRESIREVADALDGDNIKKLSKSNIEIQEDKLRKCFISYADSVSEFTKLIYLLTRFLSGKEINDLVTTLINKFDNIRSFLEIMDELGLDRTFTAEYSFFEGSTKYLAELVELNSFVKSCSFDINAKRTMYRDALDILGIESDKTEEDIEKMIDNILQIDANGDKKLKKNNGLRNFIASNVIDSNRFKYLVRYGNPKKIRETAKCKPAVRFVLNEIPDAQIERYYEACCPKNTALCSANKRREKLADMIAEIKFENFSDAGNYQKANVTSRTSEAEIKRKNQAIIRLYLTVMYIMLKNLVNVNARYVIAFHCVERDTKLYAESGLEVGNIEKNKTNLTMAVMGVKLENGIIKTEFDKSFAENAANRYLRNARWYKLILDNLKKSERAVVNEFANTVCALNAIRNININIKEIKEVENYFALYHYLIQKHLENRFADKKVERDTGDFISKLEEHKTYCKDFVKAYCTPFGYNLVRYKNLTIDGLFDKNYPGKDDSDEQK", "experiment": "crRNA (strand 1, pre-loaded); Mg2+; 40 mM Tris-HCl pH 7.5, 150 mM NaCl, 6 mM MgCl2, 1 mM DTT, 0.1% Tween-20, 0.2 mg/ml BSA; 25 C; 10 min per concentration, then washed", "details": "tags: His6-TwinStrep-SUMO cleaved; N-terminal SNAP kept (SNAP-Surface 488); label: 3' end held by stalled T7 RNA polymerase", "note": "Residue numbers refer to the chain shown, from its start. Names and notes keep the numbering of the source.", "data": [{"binder": "B1", "values": [{"measurement": "Kd", "result": "46 ± 4", "unit": "nM"}]}, {"binder": "B2", "values": [{"measurement": "Kd", "result": "9.9 ± 0.7", "unit": "nM"}]}, {"binder": "B3", "values": [{"measurement": "Kd", "result": "20 ± 1.7", "unit": "nM"}]}, {"binder": "B4", "values": [{"measurement": "Kd", "result": "61 ± 11", "unit": "nM"}]}, {"binder": "B5", "values": [{"measurement": "Kd", "result": "30 ± 4", "unit": "nM"}]}, {"binder": "B6", "values": [{"measurement": "Kd", "result": "20.9 ± 1.5", "unit": "nM"}]}, {"binder": "B7", "values": [{"measurement": "Kd", "result": "35.2 ± 2.1", "unit": "nM"}]}, {"binder": "B8", "values": [{"measurement": "Kd", "result": "8.6 ± 0.4", "unit": "nM"}]}, {"binder": "B9", "values": [{"measurement": "Kd", "result": "38.4 ± 2.1", "unit": "nM"}]}, {"binder": "B10", "values": [{"measurement": "Kd", "result": "40 ± 6", "unit": "nM"}]}, {"binder": "B11", "values": [{"measurement": "Kd", "result": "19 ± 1.1", "unit": "nM"}]}, {"binder": "B12", "values": [{"measurement": "Kd", "result": "~43", "unit": "nM"}]}, {"binder": "B13", "values": [{"measurement": "Kd", "result": "26.4 ± 1.7", "unit": "nM"}]}, {"binder": "B14", "values": [{"measurement": "Kd", "result": "18 ± 1.1", "unit": "nM"}]}, {"binder": "B15", "values": [{"measurement": "Kd", "result": "8.47 ± 0.27", "unit": "nM"}]}, {"binder": "B16", "values": [{"measurement": "Kd", "result": "30.9 ± 3", "unit": "nM"}]}, {"binder": "B17", "values": [{"measurement": "Kd", "result": "7.21 ± 0.28", "unit": "nM"}]}, {"binder": "B18", "values": [{"measurement": "Kd", "result": "8.3 ± 0.8", "unit": "nM"}]}, {"binder": "B19", "values": [{"measurement": "Kd", "result": "49 ± 19", "unit": "nM"}]}, {"binder": "B20", "values": [{"measurement": "Kd", "result": "28.8 ± 2.3", "unit": "nM"}]}, {"binder": "B21", "values": [{"measurement": "Kd", "result": "11 ± 0.5", "unit": "nM"}]}, {"binder": "B22", "values": [{"measurement": "Kd", "result": "11.5 ± 0.6", "unit": "nM"}]}, {"binder": "B23", "values": [{"measurement": "Kd", "result": "16.7 ± 1", "unit": "nM"}]}, {"binder": "B24", "values": [{"measurement": "Kd", "result": "22.2 ± 2.9", "unit": "nM"}]}, {"binder": "B25", "values": [{"measurement": "Kd", "result": "73 ± 21", "unit": "nM"}]}, {"binder": "B26", "values": [{"measurement": "Kd", "result": "23.8 ± 2.3", "unit": "nM"}]}, {"binder": "B27", "values": [{"measurement": "Kd", "result": "19.8 ± 1.9", "unit": "nM"}]}, {"binder": "B28", "values": [{"measurement": "Kd", "result": "21.2 ± 1.5", "unit": "nM"}]}]}
